Experimental findings from patent US20140134176A1 (Pfizer, published 2014) are described below.

Changes are numbered by the printed parent chain. In names and notes the source's numbering stands. Bounds are passed on as bounds.

In experiment [1] the target is T1, human PDGF-BB (human, UniProt P01127 82-190). The experiment can be described thus: cell-based or functional assay.
The target in experiment [2] is T1, human PDGF-BB. The experiment can be described thus: SPR (Biacore 2000), antibody captured via anti-human IgG, PDGF injected. How it is done:
(§1) Anti-human (A-D, I-K) or anti-mouse (E-H) IgG antibodies were immobilized in flow cells of CM5 sensor chips. 1 μg/mL of MOR8457-IKR-hIgG1-3m (A-D), MOR8457-mIgG1 (E-H) or MOR8457-GL-hIgG1-3m (I-K) was injected independently over the respective anti-human or anti-mouse surface for 10 seconds resulting in a stable anti-PDGF surface between 50-100 RU. Different concentration of PDGF proteins, 0.25, 0.5, and 1 nM, was then injected over the antibody surface for 2 minutes at a flow rate of 100 μl/min for binding. The complex was allowed to dissociate for 10 minutes. The surface was regenerated with a 30 second injection of 10 mM magnesium chloride leaving the surface ready for another round of anti-PDGF antibody capture and PDGF binding kinetics. Each of these three antibodies bound tightly to human (A, E, I), mouse (B, F, J) and rat (C, G, K) PDGF-BB. MOR8457-IKR-hIgG1-3m (D) and MOR8457-mIgG1 (H) bound to human PDGF-AB. Each sensorgram shown is one representative of three independent experiments.
(§2) In order to test the specificity and cross species reactivity, the binding affinities of three MOR8457 IgG variants, MOR8457-IKR-hIgG1-3m, MOR8457-mIgG1, and MOR8457-GL-hIgG1-3m, to different human PDGF ligands, including human PDGF-AA, -AB, -DD, as well as rat PDGF-BB (all obtained from R&D systems, Minneapolis, Minn.) and mouse PDGF-BB (Invitrogen, Carlsbad, Calif.) were tested. Briefly, anti-human or anti-mouse IgG (GE Healthcare) antibodies were immobilized in adjacent flow cells of a CM5 sensor chip between 8000-10,000 resonance units (RU) using amine coupling as directed by the manufacturer. Antibodies were diluted into PBS-NET (10 mM Phosphate pH 7.4, 287 mM NaCl, 2.7 mM KCl, 3.2 mM EDTA, 0.01% Tween 20) to 1 μg/mL and injected independently over the respective anti-human or anti-mouse surface for 10 seconds resulting in a stable anti-PDGF surface between 50-100 RU. PDGF proteins were diluted to 1 nM in PBS-NET and serially diluted two-fold to 0.25 nM. Each concentration of PDGF was then injected over the antibody surface for 2 minutes at a flow rate of 100 μl/min. The complex was allowed to dissociate for 10 minutes. The surface was regenerated with a 30 second injection of 10 mM magnesium chloride leaving the surface ready for another round of anti-PDGF antibody capture and PDGF binding kinetics.
(In SPR one partner is held on a chip, and binding of the other changes the refractive index at the surface.)

The target in experiment [3] is T2, mouse PDGF-BB (mouse, UniProt P31240 82-190).
T2 construct: also called muBB; Mu PDGF-BB
T2 sequence (P31240 82-190 limits assumed): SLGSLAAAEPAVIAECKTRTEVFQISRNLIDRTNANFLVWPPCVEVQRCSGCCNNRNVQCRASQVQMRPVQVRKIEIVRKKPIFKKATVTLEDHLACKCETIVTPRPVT
The description is as above. Here is the method: as §1, §2

Experiment [4] has as its target T3, rat PDGF-BB (rat, UniProt Q05028 74-182).
T3 construct: also called ratBB
The experiment is described as above. Here is the method: as §1, §2

Experiment [5] concerns the target T1, human PDGF-BB. The experiment can be described thus: SPR (Biacore 3000), antibody captured via anti-human IgG, PDGF injected. How it is done:
(§3) FIG. 20, comprising panels A through D, depicts Biacore sensorgrams showing the binding kinetics of MOR8457-16 to different PDGF isoforms. MOR8457-16 was captured onto CM5 chips using an anti-human IgG antibody. The binding kinetics of each PDGF isoform was assessed by flowing different concentrations of each PDGF isoform over the captured MOR8457-16 surface. The concentrations of Hu-PDGF-BB (A) and Mu-PDGF-BB (C) were 0.25, 0.5, and 1 nM, and the concentrations for Hu-PDGF-AB (B) and Rat-PDGF-BB (D) were 0.5 and 1 nM. Each sensorgram is one representative of two independent experiments. Kinetics data were double referenced and fit using Biacore evaluation software version 4.1.
(§4) The binding affinities of MOR8457-16 to different PDGF isoforms were determined as previously described (Example 6) using a Biacore 3000 (GE Healthcare, Piscataway N.J.). Briefly, an anti-human IgG (GE Healthcare) antibody was immobilized in flow cells of a CM5 sensor chip between 8,000-10,000 resonance units (RU) using amine coupling as directed by the manufacturer. Test antibodies were diluted into PBS-NET (10 mM Phosphate pH 7.4, 287 mM NaCl, 2.7 mM KCl, 3.2 mM EDTA, 0.01% Tween-20) to 0.5 ug/mL and injected over the anti-human antibody surface for 30 seconds resulting in a stable anti-PDGF surface between 82-122 RU. PDGF proteins were diluted to 1 nM in PBS-NET and serially diluted two-fold to 0.25 nM. Each concentration of PDGF was then injected over the antibody surface for 2 minutes at a flow rate of 100 ul/min. The complex was allowed to dissociate for 10 minutes. The surface was regenerated with a 30 second injection of 3M magnesium chloride leaving the surface ready for another round of anti-PDGF antibody capture and PDGF binding kinetics. Kinetic data was double referenced (D. G. Myszka et al., J. Mol. Recognit. 12:279, 1999) using Scrubber2 software (Bio-Logic Software), then fit to a 1:1 binding model using Biacore evaluation software version 4.1. Protein concentrations of all PDGF isoforms were corrected with active concentrations determined under the condition of limiting mass transport (Karlsson et al., METHODS: A companion to Methods in Enzymology 6:99-110, 1994). Results shown were averages of two independent binding studies.

For experiment [6], the target named is T2, mouse PDGF-BB. The description is as above. How it is done: as §3, §4
Experiment [7] has as its target T3, rat PDGF-BB. The experiment is described as above. How it is done: as §3, §4
The target in experiment [8] is T4, human PDGF-AB (human, UniProt P04085 87-211, limits assumed).
T4 construct: Heterodimer of PDGF-A and PDGF-B, bought; also called huAB; Hu PDGF-AB
T4 sequence (chain, as listed by the source limits assumed, chain 2 of 2, other chains not shown): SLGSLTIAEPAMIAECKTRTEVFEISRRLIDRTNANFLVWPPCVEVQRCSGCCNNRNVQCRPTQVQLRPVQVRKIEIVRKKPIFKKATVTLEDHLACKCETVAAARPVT
The description is as above. How it is done:
as §3, §4

In experiment [9] the target is T4, human PDGF-AB. The experiment can be described thus: SPR (Biacore). How it is done:
as §2, with “kinetics. […]” for “kinetics.”

Another experiment deals with human PDGF-AA (human, UniProt P04085 87-211, limits assumed). The experiment can be described thus: SPR (Biacore), antibody captured. Here is the method: as §2, with “kinetics. Kinetic data were double referenced (Myszka et al., 1999, J. Mol. Recognit. 12 279) using scrubber2 software (Bio-Logic Software), then fit to a 1:1 binding model using Biacore evaluation software version 4.1. The results shown were an average of three independent binding studies.” for “kinetics.”

The next experiment concerns the target human PDGF-DD (human, UniProt Q9GZP0 250-370, limits assumed). The experiment can be described thus: SPR (Biacore), antibody captured. Here is the method: as §2, with “kinetics. Kinetic data were double referenced (Myszka et al., 1999, J. Mol. Recognit. 12 279) using scrubber2 software (Bio-Logic Software), then fit to a 1:1 binding model using Biacore evaluation software version 4.1. The results shown were an average of three independent binding studies.” for “kinetics.”

The target of experiment [10] is T4, human PDGF-AB. The experiment can be described thus: SPR (Biacore 2000), antibody captured via anti-human IgG, PDGF injected. How it is done: as §1, §2

T1 sequence (P01127 82-190 limits assumed): as the sequence (chain, as listed by the source limits assumed, chain 2 of 2, other chains not shown) above
T3 sequence (Q05028 74-182 limits assumed): as the sequence (P31240 82-190 limits assumed) above, with I83V, I102V counted along it
human PDGF-DD, sequence (Q9GZP0 250-370 limits assumed): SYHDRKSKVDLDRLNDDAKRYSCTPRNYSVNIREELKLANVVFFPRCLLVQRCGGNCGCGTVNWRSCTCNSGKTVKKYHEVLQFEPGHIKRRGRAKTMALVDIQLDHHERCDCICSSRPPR

B1: MOR8457-GL-hIgG1-3m (antibody, V domains shown)
VH: EVQLLESGGGLVQPGGSLRLSCAASGFTFSSYAMSWVRQAPGKGLEWVSYISDDGSLKYYADSVKGRFTISRDNSKNTLYLQMNSLRAEDTAVYYCAKHPYWYGGQLDLWGQGTLVTVSS
VL: SYELTQPPSVSVSPGQTASITCSGDSLGSYFVHWYQQKPGQSPVLVIYDDSNRPSGIPERFSGSNSGNTATLTISGTQAMDEADYYCSAFTHNSDVFGGGTKLTVLG
notes: Germlined VH and VL, human IgG1-3m, wild type human lambda
As to B1, the “IC50, inhibition of PDGF-BB (2.5 ng/ml) stimulated mesangial cell proliferation” value with human PDGF-BB [1] worked out at 20 pM. For the same molecule, in the experiment with human PDGF-BB [2], the affinity, expressed as Kd, was 13 pM; the koff came out at 0.00019 s⁻¹; the kon was 1.5e+07 M⁻¹ s⁻¹. In the experiment with mouse PDGF-BB [3], the Kd worked out at 4 pM, the koff amounted to 0.0002 s⁻¹ and the kon is 5.3e+07 M⁻¹ s⁻¹. In the experiment with rat PDGF-BB [4], this molecule returned a Kd of 15 pM, a koff of 0.00024 s⁻¹ and a kon of 1.7e+07 M⁻¹ s⁻¹.

B2: MOR8457-16 (antibody, human IgG1, lambda, V domains shown)
VH: B1 VH with E6Q, Q13K, K98R
VL: B1 VL with N52K
notes: Engineered variant of MOR8457-GL: heavy E6Q, Q13K; light N53K (Kabat); human IgG1-3m; also called MOR8547-16
In the case of B2, in the experiment with human PDGF-BB [1], the “IC50, inhibition of PDGF-BB (2.5 ng/ml) stimulated mesangial cell proliferation” value came to 14 pM. Further, the Kd in the experiment with human PDGF-BB [5] is 9.75 pM; with mouse PDGF-BB [6], 8.62 pM; in the experiment with rat PDGF-BB [7] it was 8.88 pM; in the experiment with human PDGF-AB [8] it was around 8.02 pM. Also, the koff in the experiment with human PDGF-BB [5] is 0.000169 s⁻¹; with mouse PDGF-BB [6] it was 0.00018 s⁻¹; in the experiment with rat PDGF-BB [7], 0.000114 s⁻¹; in the experiment with human PDGF-AB [8], below 1e-05 s⁻¹. The kon is 1.73e+07 M⁻¹ s⁻¹ in the experiment with human PDGF-BB [5], 2.16e+07 M⁻¹ s⁻¹ with mouse PDGF-BB [6], 1.29e+07 M⁻¹ s⁻¹ in the experiment with rat PDGF-BB [7] and 3.39e+06 M⁻¹ s⁻¹ with human PDGF-AB [8].

B3: MOR8457-IKR-hIgG1-3m (antibody)
heavy: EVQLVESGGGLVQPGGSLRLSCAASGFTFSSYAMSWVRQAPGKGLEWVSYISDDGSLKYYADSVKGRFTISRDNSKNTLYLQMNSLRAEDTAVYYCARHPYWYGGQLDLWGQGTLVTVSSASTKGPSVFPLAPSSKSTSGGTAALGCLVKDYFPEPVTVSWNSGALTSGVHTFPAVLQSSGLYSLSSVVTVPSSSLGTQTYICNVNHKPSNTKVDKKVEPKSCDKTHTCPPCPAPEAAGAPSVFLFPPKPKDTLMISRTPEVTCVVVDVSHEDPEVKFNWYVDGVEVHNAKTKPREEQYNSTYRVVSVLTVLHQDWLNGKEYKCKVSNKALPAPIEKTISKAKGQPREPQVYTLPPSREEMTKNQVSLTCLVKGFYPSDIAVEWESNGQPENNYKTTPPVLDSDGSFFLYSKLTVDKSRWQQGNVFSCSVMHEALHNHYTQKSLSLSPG
light: SYELTQPPSVSVAPGQTARISCSGDSLGSYFVHWYQQKPGQAPVLVIYDDSNRPSGIPERFSGSNSGNTATLTISGTQAEDEADYYCSAFTHNSDVFGGGTKLTIKRQPKAAPSVTLFPPSSEELQANKATLVCLISDFYPGAVTVAWKADSSPVKAGVETTTPSKQSNNKYAASSYLSLTPEQWKSHRSYSCQVTHEGSTVEKTVAPTECS
notes: also called MOR8457-IKR-IgG1-3m
Regarding B3, in the experiment with human PDGF-AB [9], the “fold reduction in binding against PDGF-BB” value was around 3 fold. Moreover, the “IC50, inhibition of PDGF-BB induced human mesangial cell proliferation (BrdU incorporation)” value in the experiment with human PDGF-BB [1] came to 13.4 pM. Moreover, the binding result in the experiment with human PDGF-AA and with human PDGF-DD was “no binding (tested: 0.25-1 nM PDGF)” each time. The Kd with human PDGF-BB [2] is 28 pM; with mouse PDGF-BB [3], 10 pM; with rat PDGF-BB [4] it was 25 pM; with human PDGF-AB [10], 69 pM. Moreover, the koff turned out to be 0.000362 s⁻¹ with human PDGF-BB [2], 0.000293 s⁻¹ with mouse PDGF-BB [3], 0.000447 s⁻¹ in the experiment with rat PDGF-BB [4] and 0.00045 s⁻¹ in the experiment with human PDGF-AB [10]. In addition, the kon in the experiment with human PDGF-BB [2] was determined as 1.27e+07 M⁻¹ s⁻¹; with mouse PDGF-BB [3], 2.95e+07 M⁻¹ s⁻¹; with rat PDGF-BB [4], 1.77e+07 M⁻¹ s⁻¹; in the experiment with human PDGF-AB [10] it was 6.5e+06 M⁻¹ s⁻¹.

In general, Kd refers to the equilibrium constant for the complex coming apart. Read a high Kd as weaker binding. Usually koff stands for the rate constant with which the complex falls apart. A high value points to a short-lived complex. As a reminder, the kon is the rate constant with which the complex forms.
